± gives the uncertainty stated by the source.
Experiment: self-splicing fitness, log relative to wild type (ln ratio); higher = more splicing; Tetrahymena group I intron in knt gene, E. coli kanamycin selection, DiMSum; sequences stand for … in CUCUCU…GGAGGGAAAAGUUAUCAGGCAUGCACCUGGUAGCUAGUCUUUAAACCAAUAGAUUGCAUCGGUUUAAAAGGCAAGACCGUCAAAUUGCGGGAAAGGGGUCAACAGCCGUUCAGUACCAAGUCUCAGGGGAAACUUUGAGAUGGCCUUGCAAAGGGUAUGGUAAUAAGCUGACGGACAUGGUCCUAACCACGCAGCCAAGUCCUAAGUCAACAGAUCUUCUGUUGAUAUGGAUGCAGUUCACAGACUAAAUGUCGGUCGGGGAAGAUGUAUUCUUCUCAUAAGAUAUAGUCGGACCUCUCCUUAAUGGGAGCUAGCGGAUGAAGUGAUGCAACACUGGAGCCGCUGGGAACUAAUUUGUAUGCGAAAGUAUAUUGAUUAGUUUUGGAGUACUCGUGGUCG
How it was run: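 A randomised library covering all eight P1ex-region intron nucleotides was built with the intron in the knt kanamycin-resistance gene on pET-22b(+) and held in E. coli BL21(DE3). Cells were grown overnight at 37°C or 30°C on LB agar, with or without 25 μg/mL kanamycin, plus 100 μg/mL carbenicillin, 50 μM IPTG and 0.2% rhamnose, and pooled colonies were amplicon-sequenced on an Illumina HiSeq 2500. DiMSum fitness is the error-weighted combination of wild-type-normalised replicate fold changes, kanamycin versus none.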

Sequence	self-splicing fitness (ln) (30 °C)	self-splicing fitness (ln) (37 °C)
UACCAGCAAUAUUACGGGGU	-4.41 ± 0.16	-2.68 ± 0.15
UUUAAGCAAUAUUACGAGCA	-1.38 ± 0.21	-0.686 ± 0.22
UGGAAGCAAUAUUACGGUGG	-1.42 ± 0.091	-0.276 ± 0.11
AACGAGCAAUAUUACGCCUU	-3.47 ± 0.16	-1.8 ± 0.11
UCGAAGCAAUAUUACGCUAA	–	-2.07 ± 0.36
AGGCAGCAAUAUUACGUAUG	-3.27 ± 0.27	-1.53 ± 0.15
CGUUAGCAAUAUUACGCUAU	-2.29 ± 0.28	–
AAUCAGCAAUAUUACGACUU	0.234 ± 0.068	0.142 ± 0.083
ACUUAGCAAUAUUACGGCGG	-1.06 ± 0.087	-0.78 ± 0.096
ACAGAGCAAUAUUACGGAUC	-3.24 ± 0.4	-1.85 ± 0.26
GGAGAGCAAUAUUACGCCUC	-3.07 ± 0.36	–
UACAAGCAAUAUUACGCAAG	-2.81 ± 0.12	-1.6 ± 0.11
UAUUAGCAAUAUUACGUUAC	-3.17 ± 0.23	-2.86 ± 0.32
GGUCAGCAAUAUUACGAUGA	-0.626 ± 0.087	0.0621 ± 0.099
AGAGAGCAAUAUUACGUUAU	-2.61 ± 0.18	-2.64 ± 0.48
CCUUAGCAAUAUUACGUGUC	-2.66 ± 0.26	-0.776 ± 0.21
GCCCAGCAAUAUUACGACGA	-1.31 ± 0.15	-0.475 ± 0.15
AGACAGCAAUAUUACGAUAU	-1.93 ± 0.064	-0.802 ± 0.07
AGGUAGCAAUAUUACGAGCC	-0.991 ± 0.021	-0.862 ± 0.037
CGUUAGCAAUAUUACGUCGA	-2.71 ± 0.19	-1.16 ± 0.2
GAGAAGCAAUAUUACGCUAU	-2.79 ± 0.19	-1.31 ± 0.16
CACGAGCAAUAUUACGAACC	–	-1.7 ± 0.32
GAAUAGCAAUAUUACGAACA	-0.419 ± 0.13	-0.622 ± 0.11
UUGCAGCAAUAUUACGAAUG	-1.98 ± 0.086	-0.713 ± 0.1
UACAAGCAAUAUUACGGACC	-2.74 ± 0.14	-0.499 ± 0.18
ACUUAGCAAUAUUACGGGCC	-2.42 ± 0.28	-2.35 ± 0.42

Sequence	self-splicing fitness (ln) (30 °C)	self-splicing fitness (ln) (37 °C)
GGCGAGCAAUAUUACGAUGA	-2.08 ± 0.17	-2.93 ± 0.33
CUGUAGCAAUAUUACGGCUA	–	-1.51 ± 0.39
ACGUAGCAAUAUUACGUGAG	-3.75 ± 0.17	-2.55 ± 0.14
AGUCAGCAAUAUUACGUAGG	-3.1 ± 0.12	-1.64 ± 0.14
CACGAGCAAUAUUACGCAGU	-3.4 ± 0.31	-3.5 ± 0.37
CUCAAGCAAUAUUACGAUUA	-3.59 ± 0.47	-2.37 ± 0.23
GUUUAGCAAUAUUACGUGUA	-2.53 ± 0.092	-0.725 ± 0.077
GAAAAGCAAUAUUACGCACA	-0.807 ± 0.093	-0.0907 ± 0.14
AUCCAGCAAUAUUACGUUGG	-4.05 ± 0.18	-2.97 ± 0.16
GGCUAGCAAUAUUACGCUAG	-2.5 ± 0.3	-1.45 ± 0.34
GUUGAGCAAUAUUACGGACU	-3.15 ± 0.24	-3.49 ± 0.34
UGAAAGCAAUAUUACGGAUA	-1.56 ± 0.13	-1.1 ± 0.14
AGCCAGCAAUAUUACGCGAC	-0.935 ± 0.13	-1.78 ± 0.2
CCCGAGCAAUAUUACGCGAU	-1.12 ± 0.19	-2.5 ± 0.34
GACUAGCAAUAUUACGAUGA	-0.535 ± 0.1	-1.08 ± 0.08
ACCGAGCAAUAUUACGUCUU	-2.91 ± 0.12	-2.22 ± 0.13
CACAAGCAAUAUUACGAUGA	-2.99 ± 0.11	-1.21 ± 0.09
GUGAAGCAAUAUUACGGUGU	-1.8 ± 0.063	-0.777 ± 0.082
GAGGAGCAAUAUUACGACAA	-2.14 ± 0.24	-1.1 ± 0.27
ACCUAGCAAUAUUACGAGAG	-2.34 ± 0.13	-0.462 ± 0.08
UCCAAGCAAUAUUACGGGAG	-2.57 ± 0.16	-2.9 ± 0.35
AUAAAGCAAUAUUACGACUG	-1.14 ± 0.085	-0.454 ± 0.098
GUGCAGCAAUAUUACGUUGU	-3.71 ± 0.17	-2.56 ± 0.17
UCAUAGCAAUAUUACGAGCA	-0.736 ± 0.2	-1.11 ± 0.23
UCUUAGCAAUAUUACGCGGA	–	-2.03 ± 0.41
AUAUAGCAAUAUUACGAUCG	-1.94 ± 0.12	-0.815 ± 0.14

Sequence	self-splicing fitness (ln) (30 °C)	self-splicing fitness (ln) (37 °C)
UUACAGCAAUAUUACGGCUG	-2.21 ± 0.17	-1.42 ± 0.2
GCGCAGCAAUAUUACGGCUU	0.000989 ± 0.11	0.531 ± 0.15
UGCCAGCAAUAUUACGAGAG	-4.28 ± 0.21	-2.56 ± 0.14
AAGAAGCAAUAUUACGUUUA	-1.62 ± 0.074	-1.01 ± 0.077
GUACAGCAAUAUUACGCCAA	–	-1.7 ± 0.29
GCUUAGCAAUAUUACGAAGA	0.387 ± 0.24	-0.855 ± 0.15
CUAUAGCAAUAUUACGGUUU	-3.72 ± 0.12	-2.58 ± 0.17
CCGCAGCAAUAUUACGAGGC	-3.72 ± 0.19	-2.65 ± 0.23
UCACAGCAAUAUUACGCGAG	-1.32 ± 0.063	-0.0838 ± 0.077
AAUAAGCAAUAUUACGACAG	-1.64 ± 0.13	-0.432 ± 0.14
AAUUAGCAAUAUUACGCGCA	-0.118 ± 0.11	0.114 ± 0.15
CACGAGCAAUAUUACGUUGG	-3.11 ± 0.16	-1.79 ± 0.14
UAUAAGCAAUAUUACGAGGC	–	-2.5 ± 0.39
GUCUAGCAAUAUUACGGUGA	-2.81 ± 0.25	-0.385 ± 0.21
AUACAGCAAUAUUACGAGGU	-3.04 ± 0.11	-1.84 ± 0.11
AAUAAGCAAUAUUACGAGAU	-3.82 ± 0.2	-2.24 ± 0.21
GACUAGCAAUAUUACGCGAU	-2.8 ± 0.21	-2.42 ± 0.3
GAUCAGCAAUAUUACGUGCU	-3.41 ± 0.15	-2.2 ± 0.16
AGAGAGCAAUAUUACGCACC	0.805 ± 0.35	–
CCAAAGCAAUAUUACGUAGC	-3.81 ± 0.16	-2.48 ± 0.16
AAGAAGCAAUAUUACGUCUA	-0.234 ± 0.066	-0.565 ± 0.098
UCUGAGCAAUAUUACGGUGG	-1.29 ± 0.084	-0.277 ± 0.1
GUGAAGCAAUAUUACGGGCA	-0.763 ± 0.064	-0.106 ± 0.083
AUUCAGCAAUAUUACGUAUA	-1.66 ± 0.16	-0.805 ± 0.17
UCAUAGCAAUAUUACGGCCA	–	-0.442 ± 0.46
AAAGAGCAAUAUUACGUCCA	-1.76 ± 0.33	-1.93 ± 0.36

Reference: the supplement of paper PMC7877785
